Measurements as given in patent US20230035235A1.

Experiments:
BCL7C (human) [1] = molecular target: BCL7C (human) (UniProt Q8WUZ0); assay: HA affinity purification of HA-DPF2 from HEK-293T nuclear extract, glycerol gradient fraction 14, mass spectrometry of co-purified proteins
SMARCB1 (human) [2] = molecular target: SMARCB1 (human) (UniProt Q12824); assay: as above
BCL7A (human) [3] = molecular target: BCL7A (human) (UniProt Q4VC05); assay: as above
SS18 (human) = SS18 (human) (UniProt Q15532); assay: as above
SMARCD1 (human) = SMARCD1 (human) (UniProt Q96GM5); assay: as above
ACTL6A (human) [4] = molecular target: ACTL6A (human) (UniProt O96019); assay: as above
SMARCD2 (human) = SMARCD2 (human) (UniProt Q92925); assay: as above
SMARCE1 (human) = SMARCE1 (human) (UniProt Q969G3); assay: as above
SS18L1 (human) [5] = molecular target: SS18L1 (human) (UniProt O75177); assay: as above
GLTSCR1L (human) = GLTSCR1L (human) (UniProt Q6AI39); assay: HA affinity purification from HEK-293T nuclear extract, glycerol gradient fraction 15, mass spectrometry (co-purification in the complex)
BCL7C (human) [6] = molecular target: BCL7C (human) (UniProt Q8WUZ0); assay: as above
SMARCB1 (human) [7] = molecular target: SMARCB1 (human) (UniProt Q12824); assay: as above
BCL7A (human) [8] = molecular target: BCL7A (human) (UniProt Q4VC05); assay: as above
DPF3 (human) = DPF3 (human) (UniProt Q92784); assay: as above
GLTSCR1 (human) = GLTSCR1 (human) (UniProt Q9NZM4); assay: as above
DPF1 (human) = DPF1 (human) (UniProt Q92782); assay: as above
DPF2 (human) = DPF2 (human) (UniProt Q92785); assay: as above
BRD7 (human) = BRD7 (human) (UniProt Q9NPI1); assay: as above
BRD9 (human) = BRD9 (human) (UniProt Q9H8M2); assay: as above
ACTL6A (human) [9] = molecular target: ACTL6A (human) (UniProt O96019); assay: as above
PHF10 (human) = PHF10 (human) (UniProt Q8WUB8); assay: as above
SS18L1 (human) [10] = molecular target: SS18L1 (human) (UniProt O75177); assay: as above
PBRM1 (human) = PBRM1 (human) (UniProt Q86U86); assay: as above
[11] = molecular target: DPF1 (entry E9PDV3) (human); assay: HA affinity purification of HA-SMARCD1 mSWI/SNF complexes from HEK-293T nuclear extract, glycerol gradient fraction 15, mass spectrometry; co-purification in the complex, not necessarily direct contact
[12] = molecular target: SMARCA4 (entry Q9HBD4) (human); assay: as above
[13] = molecular target: DPF2 (Double PHD Fingers 2) (human) (UniProt Q92785); assay: colloidal blue stain and fluorometric analysis of DPF2-purified complexes

ACTL6A (human), sequence (O96019 2-429 limits assumed): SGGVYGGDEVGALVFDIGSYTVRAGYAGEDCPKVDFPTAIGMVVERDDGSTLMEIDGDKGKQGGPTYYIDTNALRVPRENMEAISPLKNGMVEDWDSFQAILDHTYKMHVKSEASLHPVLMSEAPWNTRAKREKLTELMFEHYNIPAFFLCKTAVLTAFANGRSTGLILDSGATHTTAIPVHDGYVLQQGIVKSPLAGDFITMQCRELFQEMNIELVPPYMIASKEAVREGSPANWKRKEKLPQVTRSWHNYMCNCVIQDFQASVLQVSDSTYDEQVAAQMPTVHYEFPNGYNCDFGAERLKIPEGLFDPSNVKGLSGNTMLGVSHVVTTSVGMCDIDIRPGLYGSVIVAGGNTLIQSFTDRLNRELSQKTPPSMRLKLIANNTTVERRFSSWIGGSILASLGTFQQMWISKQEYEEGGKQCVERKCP
SS18L1 (human), sequence (O75177 whole entry): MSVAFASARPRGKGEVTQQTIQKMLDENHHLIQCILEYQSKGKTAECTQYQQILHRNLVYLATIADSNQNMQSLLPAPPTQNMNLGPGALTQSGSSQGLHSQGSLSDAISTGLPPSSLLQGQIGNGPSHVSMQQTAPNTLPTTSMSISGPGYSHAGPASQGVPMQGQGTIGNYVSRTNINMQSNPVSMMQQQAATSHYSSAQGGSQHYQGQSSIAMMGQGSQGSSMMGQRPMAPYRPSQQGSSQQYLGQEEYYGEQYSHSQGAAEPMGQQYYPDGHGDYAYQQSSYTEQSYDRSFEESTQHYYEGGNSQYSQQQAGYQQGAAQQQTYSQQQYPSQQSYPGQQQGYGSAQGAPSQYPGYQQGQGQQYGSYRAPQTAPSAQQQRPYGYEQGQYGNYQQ
SMARCB1 (human), sequence (Q12824 whole entry): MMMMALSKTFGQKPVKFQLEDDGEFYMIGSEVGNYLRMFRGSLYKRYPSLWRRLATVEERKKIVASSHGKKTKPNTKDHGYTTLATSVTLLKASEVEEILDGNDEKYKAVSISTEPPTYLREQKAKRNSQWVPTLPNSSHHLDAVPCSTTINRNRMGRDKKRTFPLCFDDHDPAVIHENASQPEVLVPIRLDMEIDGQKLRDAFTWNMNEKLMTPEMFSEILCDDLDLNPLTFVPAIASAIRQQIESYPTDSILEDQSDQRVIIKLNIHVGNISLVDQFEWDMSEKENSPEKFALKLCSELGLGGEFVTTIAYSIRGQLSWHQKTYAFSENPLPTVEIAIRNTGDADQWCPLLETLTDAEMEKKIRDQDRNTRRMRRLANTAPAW
BCL7A (human), sequence (Q4VC05 whole entry): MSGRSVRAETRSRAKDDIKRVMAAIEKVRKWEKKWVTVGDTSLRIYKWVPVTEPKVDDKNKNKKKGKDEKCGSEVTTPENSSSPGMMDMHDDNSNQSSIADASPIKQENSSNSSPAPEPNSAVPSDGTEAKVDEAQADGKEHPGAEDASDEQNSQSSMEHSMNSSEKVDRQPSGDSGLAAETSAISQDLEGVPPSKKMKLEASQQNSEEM
DPF1 (human), sequence (Q92782 whole entry): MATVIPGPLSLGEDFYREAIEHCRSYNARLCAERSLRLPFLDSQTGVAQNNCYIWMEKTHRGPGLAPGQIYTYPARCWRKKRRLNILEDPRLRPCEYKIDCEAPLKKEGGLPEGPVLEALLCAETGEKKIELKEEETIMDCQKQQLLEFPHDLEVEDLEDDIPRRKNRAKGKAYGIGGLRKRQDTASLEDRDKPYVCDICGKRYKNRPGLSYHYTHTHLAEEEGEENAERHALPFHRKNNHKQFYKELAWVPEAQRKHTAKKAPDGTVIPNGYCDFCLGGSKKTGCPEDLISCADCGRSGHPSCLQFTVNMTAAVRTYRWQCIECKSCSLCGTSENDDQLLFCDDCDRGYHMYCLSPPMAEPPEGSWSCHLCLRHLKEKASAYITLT
PBRM1 (human), sequence (Q86U86 whole entry): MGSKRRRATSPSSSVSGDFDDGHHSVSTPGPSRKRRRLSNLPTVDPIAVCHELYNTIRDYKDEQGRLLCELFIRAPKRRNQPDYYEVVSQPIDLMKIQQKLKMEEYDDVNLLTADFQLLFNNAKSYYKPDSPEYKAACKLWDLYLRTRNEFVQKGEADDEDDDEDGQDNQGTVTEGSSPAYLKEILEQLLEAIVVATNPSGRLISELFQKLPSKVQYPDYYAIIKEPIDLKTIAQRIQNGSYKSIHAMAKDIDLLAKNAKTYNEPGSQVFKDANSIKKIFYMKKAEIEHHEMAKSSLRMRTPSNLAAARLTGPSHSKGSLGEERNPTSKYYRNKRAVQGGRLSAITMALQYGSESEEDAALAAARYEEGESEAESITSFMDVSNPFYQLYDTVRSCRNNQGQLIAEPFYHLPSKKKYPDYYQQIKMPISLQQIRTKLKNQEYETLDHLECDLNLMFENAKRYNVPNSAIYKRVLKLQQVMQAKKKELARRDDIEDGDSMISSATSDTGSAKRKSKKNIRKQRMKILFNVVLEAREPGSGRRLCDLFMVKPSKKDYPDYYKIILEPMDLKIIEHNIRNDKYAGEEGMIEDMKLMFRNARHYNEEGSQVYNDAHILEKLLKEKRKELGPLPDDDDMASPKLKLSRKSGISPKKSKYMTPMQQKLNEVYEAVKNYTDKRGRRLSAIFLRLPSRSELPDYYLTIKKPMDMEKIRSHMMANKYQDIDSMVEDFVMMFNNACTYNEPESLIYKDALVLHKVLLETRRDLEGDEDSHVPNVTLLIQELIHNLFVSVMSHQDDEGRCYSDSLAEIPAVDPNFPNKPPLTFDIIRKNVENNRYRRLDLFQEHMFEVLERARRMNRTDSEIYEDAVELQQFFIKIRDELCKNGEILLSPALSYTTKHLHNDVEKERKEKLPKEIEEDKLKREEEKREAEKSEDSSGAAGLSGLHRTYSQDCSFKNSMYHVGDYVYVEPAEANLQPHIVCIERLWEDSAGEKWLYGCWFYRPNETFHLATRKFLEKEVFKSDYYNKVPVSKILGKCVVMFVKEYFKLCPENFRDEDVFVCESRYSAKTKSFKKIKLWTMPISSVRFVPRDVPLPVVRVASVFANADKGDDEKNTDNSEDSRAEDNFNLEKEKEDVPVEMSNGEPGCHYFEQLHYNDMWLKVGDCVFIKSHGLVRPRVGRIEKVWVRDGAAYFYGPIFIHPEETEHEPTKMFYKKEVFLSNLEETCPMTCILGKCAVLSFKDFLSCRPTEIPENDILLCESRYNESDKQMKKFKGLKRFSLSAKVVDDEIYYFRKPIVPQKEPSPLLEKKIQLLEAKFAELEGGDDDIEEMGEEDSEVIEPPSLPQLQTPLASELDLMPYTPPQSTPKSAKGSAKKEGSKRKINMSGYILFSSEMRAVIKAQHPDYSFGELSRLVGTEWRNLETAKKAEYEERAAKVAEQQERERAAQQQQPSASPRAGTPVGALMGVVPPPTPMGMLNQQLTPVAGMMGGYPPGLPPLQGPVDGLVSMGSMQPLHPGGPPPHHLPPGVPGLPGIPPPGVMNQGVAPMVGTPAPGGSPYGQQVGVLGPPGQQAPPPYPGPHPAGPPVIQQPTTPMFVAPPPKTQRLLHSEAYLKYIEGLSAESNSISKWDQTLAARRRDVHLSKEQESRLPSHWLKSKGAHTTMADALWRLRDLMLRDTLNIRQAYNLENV
SMARCE1 (human), sequence (Q969G3 whole entry): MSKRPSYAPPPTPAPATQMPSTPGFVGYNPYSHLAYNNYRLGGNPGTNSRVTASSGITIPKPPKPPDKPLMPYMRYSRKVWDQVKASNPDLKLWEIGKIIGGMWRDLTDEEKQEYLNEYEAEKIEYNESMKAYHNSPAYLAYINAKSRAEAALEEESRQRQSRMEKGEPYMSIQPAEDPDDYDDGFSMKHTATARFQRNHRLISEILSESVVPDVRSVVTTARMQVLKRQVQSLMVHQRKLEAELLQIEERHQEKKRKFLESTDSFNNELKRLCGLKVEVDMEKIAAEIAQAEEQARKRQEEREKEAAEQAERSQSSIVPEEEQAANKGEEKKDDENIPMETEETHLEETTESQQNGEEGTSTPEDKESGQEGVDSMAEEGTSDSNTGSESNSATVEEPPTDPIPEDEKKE
SMARCD2 (human), sequence (Q92925 whole entry): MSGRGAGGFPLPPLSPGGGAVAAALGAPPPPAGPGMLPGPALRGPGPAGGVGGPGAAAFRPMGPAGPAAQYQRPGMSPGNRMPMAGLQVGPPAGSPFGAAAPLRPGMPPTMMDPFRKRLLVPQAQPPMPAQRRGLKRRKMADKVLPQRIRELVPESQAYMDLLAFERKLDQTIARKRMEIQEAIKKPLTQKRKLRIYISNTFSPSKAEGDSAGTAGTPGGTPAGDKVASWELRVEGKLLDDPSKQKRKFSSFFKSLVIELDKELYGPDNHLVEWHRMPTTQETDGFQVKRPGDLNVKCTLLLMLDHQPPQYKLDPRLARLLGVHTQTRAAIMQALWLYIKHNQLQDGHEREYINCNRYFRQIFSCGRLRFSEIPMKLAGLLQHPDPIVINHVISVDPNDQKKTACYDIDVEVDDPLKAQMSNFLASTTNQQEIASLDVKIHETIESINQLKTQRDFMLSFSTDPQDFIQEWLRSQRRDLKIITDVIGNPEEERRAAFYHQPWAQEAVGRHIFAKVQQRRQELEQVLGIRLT
DPF3 (human), sequence (Q92784 whole entry): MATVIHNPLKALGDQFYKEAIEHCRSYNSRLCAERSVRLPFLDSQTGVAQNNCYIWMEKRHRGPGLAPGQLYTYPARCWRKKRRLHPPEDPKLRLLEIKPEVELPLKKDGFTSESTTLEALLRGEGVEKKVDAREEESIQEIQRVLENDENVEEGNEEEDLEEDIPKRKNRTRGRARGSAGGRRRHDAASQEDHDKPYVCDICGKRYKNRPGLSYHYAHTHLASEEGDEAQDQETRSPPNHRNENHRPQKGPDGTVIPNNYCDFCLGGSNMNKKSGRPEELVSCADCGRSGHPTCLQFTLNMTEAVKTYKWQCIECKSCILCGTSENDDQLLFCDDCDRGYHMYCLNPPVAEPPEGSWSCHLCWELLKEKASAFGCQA

HA-DPF2 (from UniProt Q92785 1-391)
total peptides (BCL7C (human) [1]): 13 peptides
unique peptides (BCL7C (human) [1]): 7 peptides
total peptides (SMARCB1 (human) [2]): 62 peptides
unique peptides (SMARCB1 (human) [2]): 22 peptides
total peptides (BCL7A (human) [3]): 36 peptides
total peptides (SS18 (human)): 2 peptides
unique peptides (SS18 (human)): 2 peptides
total peptides (SMARCD1 (human)): 83 peptides
unique peptides (SMARCD1 (human)): 37 peptides
total peptides (ACTL6A (human) [4]): 61 peptides
unique peptides (ACTL6A (human) [4]): 23 peptides
total peptides (SMARCD2 (human)): 51 peptides
unique peptides (SMARCD2 (human)): 32 peptides
total peptides (SMARCE1 (human)): 118 peptides
unique peptides (SMARCE1 (human)): 40 peptides
total peptides (SS18L1 (human) [5]): 3 peptides
unique peptides (SS18L1 (human) [5]): 2 peptides

HA-SMARCD1 (from UniProt Q96GM5 1-515)
total peptides (GLTSCR1L (human)): 1 peptides
unique peptides (GLTSCR1L (human)): 1 peptides
total peptides (BCL7C (human) [6]): 19 peptides
unique peptides (BCL7C (human) [6]): 8 peptides
total peptides (SMARCB1 (human) [7]): 75 peptides
total peptides (BCL7A (human) [8]): 33 peptides
unique peptides (BCL7A (human) [8]): 12 peptides
total peptides (DPF3 (human)): 12 peptides
unique peptides (DPF3 (human)): 10 peptides
total peptides (GLTSCR1 (human)): 11 peptides
unique peptides (GLTSCR1 (human)): 10 peptides
total peptides (DPF1 (human)): 7 peptides
unique peptides (DPF1 (human)): 6 peptides
total peptides (DPF2 (human)): 41 peptides
unique peptides (DPF2 (human)): 19 peptides
total peptides (BRD7 (human)): 29 peptides
unique peptides (BRD7 (human)): 19 peptides
total peptides (BRD9 (human)): 8 peptides
unique peptides (BRD9 (human)): 8 peptides
total peptides (ACTL6A (human) [9]): 58 peptides
total peptides (PHF10 (human)): 14 peptides
unique peptides (PHF10 (human)): 14 peptides
total peptides (SS18L1 (human) [10]): 2 peptides
unique peptides (SS18L1 (human) [10]): 2 peptides
total peptides (PBRM1 (human)): 115 peptides
unique peptides (PBRM1 (human)): 79 peptides
total peptides [11]: 1
unique peptides [11]: 1
total peptides [12]: 1
unique peptides [12]: 1

SMARCC2 (SWI/SNF related, matrix associated, actin dependent regulator of chromatin subfamily c member 2) (from UniProt Q8TAQ2 1-1214)
stoichiometry relative to DPF2 bait (copies per DPF2) [13]: 1
